Experimental data from patent US20110183922A1 (UNIVERSITY OF MIAMI, published 2011).

The binders below were run against AChE of primary quail muscle cells (quail) (assay: cell-based or functional assay).

Q: For CCLLTPPPPPLFPPPFF [ColQ PRAD peptide (17 amino acid ColQ PRAD polypeptide)], which “tetrameric G4 AChE activity in the medium (velocity sedimentation, 10 uM peptide overnight)” value is on record?
A: > 2 fold

The binders below were run against AChE expressed in COS cells (human and/or mouse AChE) (human and/or mouse) (assay: cell-based or functional assay).

Q: For VNKCCLLTPPPPPLFPPPFFTETLDEL [SEQ ID NO: 8], which “G4 AChE level” value is on record?
A: 2.17

Q: For KRSVNKCCLLTPPPPPLFPPPFFKDEL [SEQ ID NO: 9], which “G4 AChE level” value is on record?
A: 2.37

Q: For KRSVNKCCLLTPPPPPLFPPPFFTETNILKDEL [SEQ ID NO: 11], which “G4 AChE level” value is on record?
A: 2.14

Q: CCLLTPPPPPLFPPPFFKDEL [ColQ PRAD-KDEL peptide] was tested. Which “G4 AChE level” value did it give?
A: 2.37

Q: Which “G4 AChE level” value does the source give for VNKCCLLTPPPPPLFPPPFFKDEL [SEQ ID NO: 6] here?
A: 2.26
